Measurements as given in the nanobody polyreactivity screen of Harvey et al. (2022).

Assay: yeast display, Sf9 membrane polyspecificity reagent, FACS + sequencing; frameworks hold sequencing errors
How it was run: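 Using colony PCR, genes from sorted yeast display clones were amplified, then sequenced on MiSeq at 2 × 250 and filtered by CDR length. The clones had been stained with 10% biotinylated, detergent-solubilized Sf9 membrane reagent for 1 hour at 4 °C and sorted by FACS into low and high (top ~1%) gates on anti-HA and streptavidin fluorescence. Polyreactivity labels come from the gate of origin.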

Sequence	polyreactivity (PSR sort gate)
QVHLVESGGGLVQAGGSLRLSCAASGSIYPYTMGWYRQAPGKERELVAGITRSGGRTYYADSVKGRFTISRDNAKNTVYLQMNSLKPEDTAVYYCAAGTTAWYWSEYYYWGQGTQVTVSS	high polyreactivity
QVHLVESGGGLVQAGGSLRLSCAASGSNFDINAMGWYRQAPGKERELVAVITDSGSTYYADSVKGRFTISRDNAKNTVYLQMNRLKPEDTAVYYSAADQVVAGLLTPEYDYWGQGTQVTVSS	low polyreactivity
QVHLVESGGGLVQAGGSLRLSCAASGSNFYWNAMGWYRQAPGKESELFAAISSGGRTYYADSLKGRFTISRDNAKNTVYLQLNSLKREDTAFYYCNAAGWIFPSFSPMDYWGQGTQVTVSS	low polyreactivity
QVHLVESGGGLVQAGGSLRLSCAASGSTFDDNTMGWYRQAPGKERELVAAISSDSSTNYADSVKGRFTISRDNAKNTVYLQMNSLKPEDTAVYSCATRSRTTKIVRWPGMYYWGQGTQVTVSS	high polyreactivity
QVHLVESGGGLVQAGGSLRLSCAASGSTFGLNAMGWYRQAPGKERELVAAITRSDITNYADSVKGRFTISRDNAKNTVYLQMNSLKPEDTAVYYCNKTPDRHRRYFGYGYWGQGTQVTVSS	low polyreactivity
QVHLVESGGGLVQAGGSLRLSCAASGSTFGYYAMGWYRQAPGKERELVAAIRYSGGTTYYADSVKGRFTISRDNAKNTVYLQMNSLKPEDTAVYYCAAVYTSGYYYWGQGTQVTVSS	high polyreactivity
QVHLVESGGGLVQAGGSLRLSCAASGSTFHKYALGWYRQAPGKEREYVAAISWSGGSTYYADSVKGRFTISRDNAKYTVYLQMNSLKPEDTAVYFCAARGNRYAYPRKYDYWGQGTQVTVSS	high polyreactivity
QVHLVESGGGLVQAGGSLRLSCAASGSTFIYYGMGWYRHAPGKERELVATISSGGSTNYADSVKGRFTISRDNAKNTVYLQMNSLKPEDTAVYYCAVAPYYYGLLWNTFYEYYYWGQGTQVTVSS	high polyreactivity
QVHLVESGGGLVQAGGSLRLSCAASGSTFPYYAMGWYRQAPGKEREWVAAITSSASTYFADSVKGRFTISRDNAKNTVYLQMNSLKPEDTAVYYCAVRSPYRLSSWRVGYWGQGTQVTVSS	high polyreactivity
QVHLVESGGGLVQAGGSLRLSCAASGSTFRGYGMGWYRQAPGKERELVAAISWRAASTYYADSVKGRFTISRDNAKNTVYLQMNSLKPEDTAVYYCAARYSFSSSTRYYYWGQGTQVTVSS	high polyreactivity
QVHLVESGGGLVQAGGSLRLSCAASGSTFRLYALGWYRQAPGKERELVAVISRSGGRTYADSVKGRFTISRDNAKNTVYLQMNSLKPVDTAVYYCAKARHKSPTYTHDSWGQGTQVTVSS	high polyreactivity
QVHLVESGGGLVQAGGSLRLSCAASGSTFRRNAMGWYRQAPGKERELVASITSGGSTYYADSVKGRFTITRDNAKNTVYLQMNSLKPEDTGVYYCAVVWRGGYRWPYEYWGQGTQVTVSS	low polyreactivity
QVHLVESGGGLVQAGGSLRLSCAASGSTFSWYDMGWYRQAPGKERELVAAISTTGSTYYADSVKGRFTISRDNAKNTVYLQMNSLKPEDTAVYYCAADYISIAWYRLFYDYDYWGQGTQVTVSS	high polyreactivity
QVHLVESGGGLVQAGGSLRLSCAASGSTFTLNAMGWYRQAPGKERELVAAITWDGGSTYYADSVKGRFTISRDNAKNTVYLQMNSLKPEDTAVYFCAADREFWWEVVYTYEYYYWGQGTQVTVSS	low polyreactivity
QVHLVESGGGLVQAGGSLRLSCAASGSTFYANLMGWYRQAPGKESELVAAIDGSGGRTYYADSVKGRFTISRDNAKNTVYLQMNSLKPEDTAVYYCAKKRIVPVIQFGRDYNYWGQGTQVTVSS	high polyreactivity
QVHLVESGGGLVQAGGSLRLSCAASGSTFYRYAMGWYSQAPGKERELVAAISKRGGSTYYADSVKGRFTISRDNAKNTVYLQMNSLKPEDTAGQYCAADPFDYGGGDDYWGQGTQVTVSS	high polyreactivity
QVHLVESGGGLVQAGGSLRLSCAASGSTIRRYAMGWYRQAPGTERELVASITNRGGSTYYADSVKGLFTISRDNAKNTFYLQMNSLKPEDTAVYYCAKKGVYGPLNEYWGQGTQVTVSS	high polyreactivity
QVHLVESGGGLVQAGGSLRLSCAASGSTLYWYAMGWYRQAPGKERELVARITVSGGSTSYADSVKGRFTISRDNAKNTVYLQMNSLKPEDTAVYYCAARRYWTGYYYWGQGTQVTVSS	high polyreactivity
QVHLVESGGGLVQAGGSLRLSCAASGSTSRKYTMGWYRQAPGKERELVATISWSGGSTNYADSVKGRFTISRDNAKNTVYLQMNSLKPEETAVYYCKAYVSPRYRGSRYYYWGQGTQVTVSS	high polyreactivity
QVHLVESGGGLVQAGGSLRLSCAASGSTVTLYAMGWYRQAPGKERELVASITWSGSTYADSVKGRFTISRDNAKNTVYLQMNSLKPEDTAVYYCNTDPRSVVGWYDYWGQGTQVTVSS	low polyreactivity
QVHLVESGGGLVQAGGSLRLSCAASGTIYYVYSMVWYRQAPGKERELVASINKSGGSTYYADSVKWRFTISRDNAKNTVYLQMNSLKREDTAVYYCAARTGWPRVGFQYPAHVGFDYWGQGTQVTVSS	low polyreactivity
QVHLVESGGGLVQAGGSLRLSCAASGYVMGWYRQAPGKERELVAAITRGTSTYYADSVKGRFTISRDNAKNTVYLQMNSLKPEDTAVYYCAARTTSGEWPPGNIGTYLYDYWGQGTQVTVSS	low polyreactivity

Sequence	polyreactivity (PSR sort gate)
QVHLVESGGGLVQAGGSLRLSCAAYGRIFTLNAMGWDRQAPGKERGWVARISRTGGSTYYADSVKGRFTISRDNAKNTVYLQMNSLKPEDTAVYYCAAAGFSRQPGAGAYYYWGQCTQVTVSS	high polyreactivity
QVHLVESGGGLVQAGGSLRLSCADCGFTLYGNAMGWYRQAPGKVRELVAAITKSGGRTYYADSVKGRFTISRDNAKNTVYLQMNSLKPEDTAVYYCAVRAKSRYDYWGQGTQVTVSS	high polyreactivity
QVHLVESGGGLVQAGGSLRLSCADSGFTFRRYTMGWYRQAPGKERELVAVISASGGSTYYADSVKGRFTISRDNAKNTVYLQMNSLKPEDTAVYYCNTRAVVIGGDYWGQGTQVTVSS	high polyreactivity
QVHLVESGGGLVQAGGSLRLSCADSGSIFRYYAMGWYRQAPGKEREMFARISWSGVSTYYADSVKGRFTISRDNAKNTVYLQMNSLKTEDTADYYCAGVDFRGYRYDLDYWGQGTQVTVSS	high polyreactivity
QVHLVESGGGLVQAGGSLRLSCAPSGNIFFSNAMGWYRQAPGKERELVASISQSGGSTYYADSLKGRFTISRDNAKNTVYFQMNSLKPEDTAVYYCNAFSITFYDFNSWGQGTQVTVSS	low polyreactivity
QVHLVESGGGLVQAGGSLRLSCASSASIINVYAMGWYRQAPGKEREFVADINYSGGSTYADSVKGRFTISRDNAKNTVYLQMYSVKPEDTAVYYCADVYGYLYYELYYWGQGTQVTVSS	low polyreactivity
QVHLVESGGGLVQAGGSLRLSCDASGRTFFPYGMGWYRQAPGKQRELVATISWSGGSTHYADSVKGRFTISRDNAKNTVYLQMNSLKPEDNAVYYCNKTSFLVKLDYWGQVTQVTVSS	high polyreactivity
QVHLVESGGGLVQAGGSLRLSCDASGSIFPVNAMGWYRQAPGKERELVATITWRGGRTYYADSVKGRFTISRDNAKNTVYLQMNSLKPEDTAVYYCAARLLYRHFGYWGQGTQVTVSS	high polyreactivity
QVHLVESGGGLVQAGGSLRLSCGASGIIFFHYAMGWYRQAPGKERELVAAITWSGGYTYYADSVKGRFTISRDNAKNTVYLQMNSLKPEDTAVYYCNAVLHRRLYDYWGQGTQVTVSS	high polyreactivity
QVHLVESGGGLVQAGGSLRLSCGASGSIFFIYAMGCYRQAPGKERELVATITSGGSTYYADSLKGRFTISRDNAKNTVYLQMNSLKPEDTAVYYCAVDEYFAFDYWGLGTQVTVSS	low polyreactivity
QVHLVESGGGLVQAGGSLRLSCPASGRIFAIYAAMGWTRQAPGKERELVAAISSGDNTNYADSVKGRFTISRDNAKNTVYLQLNSLKPDDTAVYYCNTNYGPTHRARYYYWGQGTQVTVSS	low polyreactivity
QVHLVESGGGLVQAGGSLRLSCPASGRIFRVYAMGWYRQEPGKERELVAAISYSGGRTFYADSVKGRFTISRDNAKNTVYFQMNSLKPEDTAVYYGAAKSYYTQALPPFDYWGQGTQVTVSS	low polyreactivity
QVHLVESGGGLVQAGGSLRLSCPASGSTFYDNAMGCYRQPPGKERELVARIRWSGVRTYYADSVKGRFTISRDNAKNTVYLQMNSLKPEDTAVYYCAAGRPSRHWWSLDYYFWGQGTQVTVSS	low polyreactivity
QVHLVESGGGLVQAGGSLRLSCSASGRTFPYNAMGWYRQSPGKERELVAAISWRGGSTYYADSVKGRFTISRDNAKNTVYLQMNSLKPEDTAVYYCNALYPVSYDHRGDYWGQGTQVTVSS	high polyreactivity
QVHLVESGGGLVQAGGSLRLSCSASGSIFGKYAMGWYRQAPGKERELVAAISWSGTSTYYADSVKGRFTISRDNAKNTVYLQMNSLKPEDTAVYYCAAESRVYGYNYWGQGTQVTVSS	high polyreactivity
QVHLVESGGGLVQAGGSLRLSCSASGSILKYYAMGWYRQAPGKERELVAAISRSGGSTYYADSVKGRFTISRDNAKNTVYLHMNSLKPEDTAVYYCAAYYNFPYHGSDYWGQGTEVTVSS	high polyreactivity
QVHLVESGGGLVQAGGSLRLSSAASGFIFLQYAMGWYRQAPGKEREFVAVISRSGGGTYYADSVKGRFTISRDNAKNTVYLQMNSLKPEDTAVYYCAALGATRSRYDYWGQGTQVTVSS	high polyreactivity
QVHLVESGGGLVQAGGSLRLSSAASGRIFKYYTMGWYRHAPGKERELVASITGTGGSTYYADSVKGRFTISRDNAKNTVYLQMNRLKPEDTAVYYCAARLSVLGGYRGRNAWRFDHWGQGTKVTVSS	high polyreactivity
QVHLVESGGGLVQAGGSLRLSSAASGSIFDGNGMGWYRQAPGKERELVASISGDGSTNYADSVKGRFTISRDNAKNTVYLQMNSLKPEDTAVYYCNARSYLTRPWWWGGPYDYWGQGTKVTVSS	low polyreactivity
QVHLVESGGGLVQAGGSLRLSSAASGSIFQVYAMGWYRQAPGTERELVAGISRGGSTYYADSVKGRFTISRDNAKNTVYLQMNSLKPEDTAVYYCAARGGGIRAYGSNRRSFYYWGQGTQVTVSS	high polyreactivity
QVHLVESGGGLVQAGGSLRLSSAASGSNFGLNAMGWSRQAPGKERELVAAITWSGGSSTYYADTVKGRLTISRDNAKNSVYLQMKSLKPEDTAVYYCAARRVFIPYYVRFYYWGQGTQVTVSS	high polyreactivity
